Assay results published in the DeepSol protein solubility set.

test: soluble on expression in E. coli; label from the status in PepcDB or PDB records

Sequence	soluble on expression in E. coli
MIDSANRADVFLRKPAPVAPELQHEVEQFYYWEAKLLNDRRFEEWFALLAEDIHYFMPIRTTRIMRDSRLEYSGSREYAHFDDDATMMKGRLRKITSDVSWSENPASRTRHLVSNVMIVGAEAEGEYEISSAFIVYRNRLERQLDIFAGERRDTLRRNTSEAGFEIVNRTILIDQSTILANNLSFFF	soluble
MGSDKIHHHHHHENLYFQGMIKLIATDIDGTLVKDGSLLIDPEYMSVIDRLIDKGIIFVVCSGRQFSSEFKLFAPIKHKLLYITDGGTVVRTPKEILKTYPMDEDIWKGMCRMVRDELPACDYFAATPDFCFAEDGGSPIFHLLRDSYGFEMREVDDITRLDRNDIIKFTVFHPDKCEELCTPVFIPAWNKKAHLAAAGKEWVDCNAKGVSKWTALSYLIDRFDLLPDEVCCFGDNLNDIEMLQNAGISYAVSNARQEVIAAAKHTCAPYWENGVLSVLKSFL	soluble
MHHHHHHGKPIPNPLLGLDSTENLYFQGIDPFTMNNRNHDVLSRMISEKAALHGLLNCLIKEFAIPEGYLRYEWPDEMKGIPPGAYFDGADWKGIPMMIGLPDQLQLFVMVDRRDTFGSQHYLSDVYLRQAQGDWQCPDFEPLVARLLAACEHIAGRKNPELYEQILQSQRLVSAIVSHNGRQRADAPLQHYLQSEQGLWFGHPSHPAPKARLWPAHLGQEQWAPEFQARAALHQFEVPVDGLHIGANGLTPQQVLDGFADQQPASPGHAIICMHPVQAQLFMQDARVQQLLRDNVIRDLGQSGRVASPTASIRTWFIDDHDYFIKGSLNVRITNCVRKNAWYELESTVLIDRLFRQLLDQHADTLGGLVAAAEPGVVSWSPAAAGELDSHWFREQTGGILRENFCRRTGAERSIMAGTLFARGVDLQPMIQTFLRTHYGEALDDNALLYWFDDYQTRLLRPVLSLFFNHGVVMEPHLQNSVLVHQQGRPQQVLLRDFEGVKLTDDLGIRYIDDDIHPRVRQSLLYSREQGWNRIMYCLFINHLSETILALSQGRPQLAPLMWRRVQQQLRAIQGELKQPSPELDALIAGHPVACKTNLKVRLAAEADRQASYVRLPSPWGHAVQHGSEVQHDERRHGDVRHEEARHGEVQHG	soluble
MGANALDFYPEPLREEIERLNGRIYPAVNNGVYRAGFATRQDAYEEAFVQLFEELDYLEGLLGERRYLAGEYLTEADIRLFTTLVRFDAVYHGHFKCNLRRIEDYPNLSGWLRELYQRPGIGETVLEHHHHHH	not soluble
TDLDAVRIKVDTVNAKPGDTVRIPVRFSGIPSKGIANCDFVYSYDPNVLEIIEIEPGELIVDPNPTKSFDTAVYPDRKMIVFLFAEDSGTGAYAITEDGVFATIVAKVKSGAPNGLSVIKFVEVGGFANNDLVEQKTQFFDGGVNVG	soluble
MATYYSNDFRAGLKIMLDGEPYAVEASEFVKPGKGQAFARVKLRRLLTGTRVEKTFKSTDSAEGADVVDMNLTYLYNDGEFWHFMNNETFEQLSADAKAIGDNAKWLLDQAECIVTLWNGQPISVTPPNFVELEIVDTDPGLKGDTAGTGGKPATLSTGAVVKVPLFVQIGEVIKVDTRSGEYVSRVK	soluble
MPLIRNYDYYDLLNVAPSTSAHRPTVMVTSSRSYMEPQKSRIYYGKNEWRGGNTTIHDPTEFEETTMDKNANEIAGDDKRKKKRWRDLLFPNSRHSSRKDKENSNVSVATRSLSSVSFRSEKPSRRRESGSLSRHRYIPPPPLPMPPRRIMTSTSMGYSDDAMTSSSSHTTTDYDDIVPVPTPSYVIYPAASIAQASRRQQQGSAKNRIFRSPTYHHDAFVNSHEWTLSRSISEMKLGIVGTSQSGKTALVHRYLTGTYTPDESPEGGRFKKEVVIEGQSHLLLIRDEGQQHLDVQFCQWVDAVVFVFNVCSIQSYDSIQALAHEMSKYRNISDLPLILVGTKDHISEKRARVITEDEGRQLAAQMKRCSYFETSSTYGTNVERVFKEACCKIIQLRVRSQVGAAAAASSQARTPTPTHSESGGRKDYQDPSRYISSNSFVMPSNMRPSFPSNSTRRNTVHHRGEHPQQQQYQQQPPSSSRTASERSMSAMLGTPYGNRMPAGVSPSASQKSVHSIANGCYSRSSAALLDSDTPAVNSYLIDSMSSAGFPLSQSGANQVSASTSHLPTPSSTPNTQRKNRRISNIFRQKDHQEEKSKMIESLNLGIGRAIPIKQGNLYKKSSKSALNREWKKKYVCLYSDGRLTYHTNLKEYMDKTAHGKEMDLKLATIRITGRLHPLHSHRVASSVDPMNGGGGGGTPTLKSYEPRRSDVGANSGDGTSGGGSDDAIKENQRQHFSPPAMPQTVAGKKKRESRKIGTNSKHNDEEDECFEVINNCLMRWEFCAGSLEERDEWIQAIGGEIEKSLGKEVANAKTNNRAVANRPDIAALRSIPGNGRCADCGNPSSEWASINLGIIICIECSGIHRNLGSHISKVRGLELDQWPVEHLAVMQAIGNDKANEMWEFGLLNGERKPTPESSREEKERFIDRKYVQKAFLKPIASGEPVTSQLISAVLARDVMSLNVLLANGMSVEEINTTTKDGRTVLHLAASIGSVELAQLLIWHNADAQILDNNGRSCLFYARSNGFREVFDMLVTAGLSPDYGLPQEINDFSQMPEFFAMGSTSNRDYSTSGDEMYGSRRISMGPPPQVPARRYLPQQPELDETSVI	not soluble
GREEAPNAEADILSCRLPGVVMTTSPIITNNSINIFVGPGTDISSLAPEFTLTPGATIDPPSGTARDFHSPQQYTVTAADGFWKKKYTVSVIDTELATIYNFEDTLGGQKYYIFVEREGEKVVMEWASGNAGYAMTGVPKTADDYPTFQFANGKTGKCLSLVTRSTGFFGSIMGMPIAAGNLFIGSFDVGNAMSNPLKATKFGLPFRHIPTYLAGYYKYKAGDQFTEGGKPVSGKRDICDIYAIMYETSESVPTLDGTNAFTSPNLVSIARIDDAKETDEWTYFKLPFHMLSGKYIDKEKLTAGKYNVAIVFTSSLEGDHFNGAIGSTLLIDEVELIYRSED	soluble
MEDPLGRLEWIKFLSAFYDKEDKAENYFNQQVSKVMATENKVSSLKKPKVAFGMVDNGKVYIPAKNSYAAKMVDMAGGDYIFKDLNNKSGYITLEDFYSKSKDADVLIYSSSKEYTPSLKSMLSAAPILKTIKPVKNKKVWCFGKDYYQAIDKTDEIIEDLASIFHPESFKGLEHHHHHH	not soluble
MVQHLSAQEIIQYISDAKKSTPLKVYVNGHFENVTFPESFKVFGSEHSKVIFCEANEWKQFYQQNHSLITELEIEMDRRNSAIPLKDL	not soluble
MGSDKIHHHHHHMYRLMDRQQMPFLFRFLSDSELYAFKDGQIISTFNKCGLFFCRKGNVEVSLEDKHFQINPGDVYIYMASTLVHLLHKSEDAEGVMVEVDLDYIIPIVNRVINVENQLFMRKHPCISLSDKQRAHLEYLLDNLRERIEAEDVQEVNLQQQRLTLELIKSMGQTFCYEILNMYFANQPMQPLPQNKKDVIFQNFMLALFRLYRKERDVAYYARMQHITPRYFSTIIKEKSGNSALQWIVQMVITEAKQLLEGSDLSIKEIADQLNFPTQSFFGKYFKQYVGISPKEYRKGKLRIKDGI	not soluble
MTAKPTVFVVDDDMSVREGLRNLLRSAGFEVETFDCASTFLEHRRPEQHGCLVLDMRMPGMSGIELQEQLTAISDGIPIVFITAHGDIPMTVRAMKAGAIEFLPKPFEEQALLDAIEQGLQLNAERRQARETQDQLEQLFSSLTGREQQVLQLTIRGLMNKQIAGELGIAEVTVKVHRHNIMQKLNVRSLANLVHLVEKYESFERGVS	soluble
GSLYNDGNRDQRNFGRNQRNNNSNRYRNSRFNSRPRTRSREDDDEVHFDKTTFSKLIHVPKEDNSKEVTLDSLLEEGVLDKEIHKAITRMEFPGLTPVQQKTIKPILSSEDHDVIARAKTGTGKTFAFLIPIFQHLINTKFDSQYMVKAVIVAPTRDLALQIEAEVKKIHDMNYGLKKYACVSLVGGTDFRAAMNKMNKLRPNIVIATPGRLIDVLEKYSNKFFRFVDYKVLDEADRLLEIGFRDDLETISGILNEKNSKSADNIKTLLFSATLDDKVQKLANNIMNKKECLFLDTVDKNEPEAHERIDQSVVISEKFANSIFAAVEHIKKQIKERDSNYKAIIFAPTVKFTSFLCSILKNEFKKDLPILEFHGKITQNKRTSLVKRFKKDESGILVCTDVGARGMDFPNVHEVLQIGVPSELANYIHRIGRTARSGKEGSSVLFICKDELPFVRELEDAKNIVIAKQEKYEPSEEIKSEVLEAVTEEPEDISDIVISLISSYRSCIKEYRFSERRILPEIASTYGVLLNDPQLKIPVSRRFLDKLGLSRSPIGKAMFEIRDY	soluble
MQSIKGNHLVKVYDYQEDGSVLLTCDAEAKNITWFKDGKMIGFLTEDKKKWNLGSNAKDPRGMYQCKGSQNKSKPLQVYYRMGSADDAKKDAAKKDDAKKDDAKKDGSDGNEEMGGITQTPYKVSISGTTVILTCPQYPGSEILWQHNDKNIGGDEDDKNIGSDEDHLSLKEFSELEQSGYYVCYPRGSKPEDANFYLYLRARV	soluble
MAHHHHHHMSTTQAALFPFRHHWRVPVTLAINTTVPNGAPSATESGGCTQPQSPGEQAAAHAAVTPDGIDAVVTDFVFAQSGRRLLLVRGDSPPDLRLCLSEDSPNGPLSGALGAGIAVEASPLQQAHRALCTGAELIHHVSTLRDQQLEGHRPCDGDTRASALELCVAGYPQGHPLDRTWGATSAAYSAPAEAAATGSVATRDSSVAAARQRSLEFLRAFEEDFDAAEHAFTAAVRVAKRRACVVSAEKRSSDISVDDGTPSAASGEPRERARHLCTPQAVMPELKEPCRTLGRLGAVRRLWTSSSIYAPYVRAACIHRMLHEKVLLRSPSEPEHRRIRSGSFHGGAAAPVIVTQMITTAQGFTGYVDEIQRGLRAWAATAGGGEQPEPAGDGPQQQHPVHAAAPTALTPPISVIPGVLLPHPTDVHVLLRSLYYTKVIPSARMQKALEVYASELMIAWRQLADEPPRRKREPALQDDTFLQALTESNGSAATLEVSEDRVAQVEARVREVRRCASCRLTSVWLSETVDLLHDLQRHGQARLHLFTMFNDKVGVRVAQLLAAYDAPRGASAEQ	not soluble
AIAERSFVWLSCLDSDSCNLTFRLGEVESHACSPSLLWNLLTQYLPPGAGHILRTYNFPVLSCVSSCHLIGGKMPEN	soluble
MTFGRLWEKFLASAYYSDLSPRTQKDYLQHQKKLLAVFGKVPADSIKPEHIRRYMDKRGEQSKTQANHEKSSMSRVYSWGYERGYVKANPCAGVSKFKAKNRERYVTDKEYQAVLSVAPLPVFIAMEIAYLCAARVSDVLSLKWEQIGNDGIFIQQGKTGKKQIKAWSPRLQAAIEKAKQLPTSAYVISNQYGNRYMYKGFNEMWVEARNRAGKISGILTDFTFHDLKAKGISDYEGSSRDKQLFSGHKTEGQVLIYDRKVKVSPTLDVPLPENIPRKYSK	not soluble
MSNKNYVFEEAKESLSSILFNGDSDRTEAGFFDGSVESWNDEDMIDGAKWVDRLVSEMTKAINIDDMRRRVAVILEALESIIKKNTNASKKLEYASMKESLQSLINDNQILKRVIANQHQRSSENEEKAKQVLHLRGVVGQYQEQVHKLELSNYAMKLHLQRSQQQQTSFSGNLPPDIY	soluble
MQQNIQYTYSSDPRSGGNQNQQLHGISQFQQNSYQPTTYSNSNANNFHSSNSATFIPNSVTQTPQRRMGEEKSLVNMLDAYFIDSTTPSTSTSWNNQQPVQMSSIQQSVGSYNQQIPQLKVGDVDLQVEGMNVKLSSSPDKGEKDRVKKARQAEAARMRYHRLSNEEKRELNLKRTLAQKRKRQREKEMEELESILRETNDIQEDPDITEQLREKRMRAKWAEAARTRYARMTPEERRAHNTRRRMRQMQNAMSAIKACGMATGDPQKDDEAVRLHIKTQNAKKAEAARQRYHRMNDDEKRVYNQRRTEAFRRRRMEEEMLLAMPIGRINGEALDRAQQIVVRNAKRAEAARLRYQRMTPDQRKSYNQKRYTPKRRRNEMDDMISAGQMAVGSSGTITMGTGTPAKKDDMDALSSLERDVVKRTQHAQQILLRQRANQSSGTPRSVTPPPQAYIISNGQQQHQQLVGNQGNNGIGQHQVLHQGHMQQQQIQVSHQDFQQSSQSIPQNIYTSGMIIQNQGQQQQGQQQQQGQSQQILNNPYRT	not soluble
